Target: T1, Hyperpolarization-activated cyclic-nucleotide-gated (HCN) ion channel 1 (HCN1)
T1 sequence (O60741 1-890, species assumed, looked up): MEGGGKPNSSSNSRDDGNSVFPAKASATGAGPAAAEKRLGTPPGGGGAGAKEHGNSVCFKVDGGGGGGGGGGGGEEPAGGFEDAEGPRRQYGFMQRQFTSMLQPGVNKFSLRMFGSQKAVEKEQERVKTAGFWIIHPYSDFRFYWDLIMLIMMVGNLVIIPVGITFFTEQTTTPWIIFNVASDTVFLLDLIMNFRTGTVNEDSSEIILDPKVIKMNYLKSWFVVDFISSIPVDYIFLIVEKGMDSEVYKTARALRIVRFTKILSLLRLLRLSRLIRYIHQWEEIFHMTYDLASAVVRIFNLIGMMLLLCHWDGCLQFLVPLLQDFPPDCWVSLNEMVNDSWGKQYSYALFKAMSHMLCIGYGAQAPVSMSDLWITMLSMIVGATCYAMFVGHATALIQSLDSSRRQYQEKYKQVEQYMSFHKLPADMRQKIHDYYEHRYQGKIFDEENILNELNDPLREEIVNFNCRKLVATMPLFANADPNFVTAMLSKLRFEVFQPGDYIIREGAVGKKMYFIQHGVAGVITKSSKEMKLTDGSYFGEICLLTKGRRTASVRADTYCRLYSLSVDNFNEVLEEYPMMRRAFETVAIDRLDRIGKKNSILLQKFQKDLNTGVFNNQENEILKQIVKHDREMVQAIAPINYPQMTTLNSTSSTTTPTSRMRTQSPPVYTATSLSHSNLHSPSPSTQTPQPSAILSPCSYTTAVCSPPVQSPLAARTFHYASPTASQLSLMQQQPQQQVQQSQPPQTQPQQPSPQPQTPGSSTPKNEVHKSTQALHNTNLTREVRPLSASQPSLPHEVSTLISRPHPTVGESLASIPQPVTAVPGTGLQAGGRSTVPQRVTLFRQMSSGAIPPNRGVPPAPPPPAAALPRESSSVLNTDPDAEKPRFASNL
Assay: cell-based or functional assay

S4TKv1.4GYS (human Kv1.4 with S4 triple mutation R447N, L448A, R453I and pore mutation G528S) (from UniProt P22459 1-653)
reversal potential of HCN co-transfected with SPC: -22 mV | reversal potential of the current left after superfusion with Cs to block HCN1 homomultimers: -11.1 mV

Source: patent US20090304588A1
